# According to patent US20230028050A1 (JUNO THERAPEUTICS, published 2023):
# Residue numbers refer to the chain shown, from its start.
# T1: recombinant BCMA-Fc (soluble human BCMA fused at its C-terminus to an Fc region of IgG) fusion polypeptide (human, UniProt Q02223 1-54)
# T1 construct: Used as a staining control; also called recombinant BCMA-Fc fusion polypeptide; not shown: Fc region of IgG
# T1 sequence (looked up): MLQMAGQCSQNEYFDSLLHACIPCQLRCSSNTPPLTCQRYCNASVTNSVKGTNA
# T2: soluble monomeric BCMA-human Fc fusion protein (UniProt Q02223 1-54, limits assumed)
# T2 construct: also called Monomeric BCMA-Fc; not shown: human Fc
# T2 sequence (looked up): T1 sequence (looked up)
# T3: soluble dimeric BCMA-human Fc fusion protein (UniProt Q02223 1-54, limits assumed)
# T3 construct: also called Dimeric BCMA-Fc; not shown: human Fc
# T3 sequence (looked up): T1 sequence (looked up)
# B1: anti-idiotype antibody clone 15 (antibody, mouse IgG1, kappa, V domains shown)
# VH: QVQLQQSGAELVKPGASVKISCKASGYAFSSYWMNWVKQRPGKGLEWIGQIYPGNGETNNNGKFKGKATLTADISSSTAYMQLSSLTSEDSAVYFCARGGWYFDVWGTGTTVTVSS
# VL: DIQMTQSPASLSASVGETVTITCRASENIYSYLAWYQQKQGKSPHLLVYNAYTLAEGVPSRFSGSGSDTQFSLKINSLQPEDFGNYYCQHHYGTPWTFGGGTKVEIKR
# notes: Mouse hybridoma antibody, purified; also called anti-ID clone 15
# B2: anti-idiotype antibody clone 10 (antibody, mouse IgG1, kappa, V domains shown)
# VH: EVKLLESGGGLVQPGGSLKLSCAASGFDFSRYWMSWVRQAPGKGLEWIGEINPDSSTINYTPSLKDKFIISRDNAKNTLYLQMSKVRSEDTALYYCARHGYYWYFDVWGAGTTVTVSS
# VL: DIQMTQTTSSLSASLGDRVTISCRASQDISNYLNWYQQKPDGTVKLLIYYTSRLHSGVPSRFSGSGSGTDYSLTISNLEQEDIATYFCQQGNTLPYTFGGGTKLEIKR
# notes: Mouse hybridoma antibody raised against the anti-BCMA CAR 1 scFv fused to mouse Fc and purified; Detected with a goat anti-mouse IgG secondary antibody; also called anti-ID clone 10
# B3: anti-idiotype antibody clone 16 (antibody, mouse IgG1, kappa, V domains shown)
# VH: QVQLQQSGPELVKPGASVKISCKASGYTFTDFYINWVKQRPGQGLEWIGWIFPRSGSTYYNEKFKGKATLSVDKSSITAYMLLSSLTSEDSAVYFCARGDGYSGAMDYWGQGTSVTVSS
# VL: B2 VL with R24S, D28G, S30R, R53N, Q80P, F87Y, G91Y, T93N, Y96R
# notes: Mouse hybridoma antibody, purified; also called anti-ID clone 16
# B4: anti-BCMA CAR 1 (chimeric antigen receptor with the scFv of anti-BCMA Target Antibody 1) (receptor)
# chain: SYELTQPPSASGTPGQRVTMSCSGTSSNIGSHSVNWYQQLPGTAPKLLIYTNNQRPSGVPDRFSGSKSGTSASLAISGLQSEDEADYYCAAWDGSLNGLVFGGGTKLTVLGSRGGGGSGGGGSGGGGSLEMAEVQLVQSGAEVKKPGESLKISCKGSGYSFTSYWIGWVRQMPGKGLEWMGIIYPGDSDTRYSPSFQGHVTISADKSISTAYLQWSSLKASDTAMYYCARYSGSFDNWGQGTLVTVSS
# notes: Whole receptor expressed on Jurkat T cells; not shown: human IgG-derived spacer, human CD28-derived transmembrane domain, human 4-1BB-derived intracellular signaling domain an
# B5: anti-idiotype antibody clone 19 (antibody, mouse IgG2b, kappa, V domains shown)
# VH: QVQLQQSGAELMKPGASVKLSCKATGYTFTAYWIEWVKQRPGHGLEWIGEILPGSGITKYSEKFKGKATFTADTSSNTAYMQLSSLTTEDSAIYYCARDYYSDNYWGQGTSVTVSS
# VL: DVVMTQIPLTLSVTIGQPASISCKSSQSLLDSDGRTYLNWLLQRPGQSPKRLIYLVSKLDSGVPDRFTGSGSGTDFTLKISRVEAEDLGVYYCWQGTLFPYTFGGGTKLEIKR
# notes: Mouse hybridoma antibody, purified; also called anti-ID clone 19
# B6: soluble monomeric scFv-Fc fusion protein (scFv from anti-BCMA CAR 2) (Fc fusion)
# chain: QSALTQPASVSASPGQSIAISCTGTSSDVGWYQQHPGKAPKLMIYEDSKRPSGVSNRFSGSKSGNTASLTISGLQAEDEADYYCSSNTRSSTLVFGGGTKLTVLGSRGGGGSGGGGSGGGGSLEMAEVQLVQSGAEMKKPGASLKLSCKASGYTFIDYYVYWMRQAPGQGLESMGWINPNSGGTNYAQKFQGRVTMTRDTSISTAYMELSRLRSDDTAMYYCARSQRDGYMDYWGQGTLVTVSS
# notes: not shown: Fc
# B7: soluble dimeric scFv-Fc fusion protein (scFv from anti-BCMA CAR 2) (Fc fusion)
# chain: B6 chain
# notes: not shown: Fc
# Columns and labels:
# [1] = biological target: B4; experiment: flow cytometry; Jurkat T cells expressing anti-BCMA CAR 1, 2.5 µg/mL anti-ID conjugated to Alexa Fluor 647, 20 min at 4 °C
# [2] = biological target: B7; experiment: SPR, BIAcore T200, against dimeric scFv-Fc
# Description: (§1) Off rates and equilibrium dissociation constants were determined against a soluble monomeric scFv-Fc fusion protein as well as against a soluble dimeric scFv-Fc fusion protein. For comparison, the kinetics and affinity of soluble monomeric and dimeric BCMA-human Fc fusion proteins were also assessed against the monomeric and dimeric scFv-Fc fusion proteins, respectively. Off rates and equilibrium dissociation constants were determined using a BIAcore T200 instrument.
# [3] = biological target: B6; experiment: SPR, BIAcore T200, against monomeric scFv-Fc
# Description: as §1
# [4] = biological target: T4, anti-BCMA CAR 2 (chimeric antigen receptor with the scFv of anti-BCMA Target Antibody 2); experiment: flow cytometry; Jurkat T cells expressing anti-BCMA CAR 2, 5 µg/mL purified anti-ID, goat anti-mouse IgG secondary antibody; parental Jurkat cells as negative
# T4 construct: Whole receptor expressed on Jurkat T cells, Nur77-tdTomato reporter cells or primary human T cells; not shown: human IgG2 and IgG4-derived spacer, human CD28-derived transmembrane domain, human 4-1BB-derived intracellular signaling
# [5] = biological target: B4; experiment: flow cytometry; Jurkat T cells expressing anti-BCMA CAR 1, anti-ID conjugated to Alexa Fluor 647
# [6] = biological target: T1, recombinant BCMA-Fc (soluble human BCMA …); experiment: flow cytometry; Jurkat T cells expressing anti-BCMA CAR 1, staining with recombinant BCMA-Fc as control
# [7] = biological target: T2, soluble monomeric BCMA-human Fc fusion …; experiment: SPR, BIAcore T200, against monomeric scFv-Fc
# Description: as §1
# [8] = biological target: T3, soluble dimeric BCMA-human Fc fusion …; experiment: SPR, BIAcore T200, against dimeric scFv-Fc
# Description: as §1
Kd [2],koff [2],Kd [3],koff [3],Binder,further results
2.2 nM,4.4e-05 s⁻¹,18 nM,0.0036 s⁻¹,B1,binding result [1]: binds
,,,,B2,binding result [4]: binds
2.6 nM,0.00014 s⁻¹,12 nM,0.005 s⁻¹,B3,binding result [5]: no binding (tested: 2.5 µg/mL)
,,,,B4,binding result [6]: binds
3.6 nM,6.2e-05 s⁻¹,55 nM,0.0081 s⁻¹,B5,
,,,,B6,Kd [7]: 290 nM; koff [7]: 0.024 s⁻¹
,,,,B7,Kd [8]: 7 nM; koff [8]: 0.00014 s⁻¹
